Assay results as given in publication PMC10279719 (2023).

Assays:
Assay in all cases: SPR
[1] = target: T1, PEAK2^IDR1 phosphorylated by Src (human, UniProt Q86YV5 802-1406, treated with Src kinase in vitro, sites not stated; phosphorylated at the tandem site 14-3-3 motif (RAA(pS)SP) as purified; biotin (EZ-Link NHS-PEG4-Biotin))
T1 chain: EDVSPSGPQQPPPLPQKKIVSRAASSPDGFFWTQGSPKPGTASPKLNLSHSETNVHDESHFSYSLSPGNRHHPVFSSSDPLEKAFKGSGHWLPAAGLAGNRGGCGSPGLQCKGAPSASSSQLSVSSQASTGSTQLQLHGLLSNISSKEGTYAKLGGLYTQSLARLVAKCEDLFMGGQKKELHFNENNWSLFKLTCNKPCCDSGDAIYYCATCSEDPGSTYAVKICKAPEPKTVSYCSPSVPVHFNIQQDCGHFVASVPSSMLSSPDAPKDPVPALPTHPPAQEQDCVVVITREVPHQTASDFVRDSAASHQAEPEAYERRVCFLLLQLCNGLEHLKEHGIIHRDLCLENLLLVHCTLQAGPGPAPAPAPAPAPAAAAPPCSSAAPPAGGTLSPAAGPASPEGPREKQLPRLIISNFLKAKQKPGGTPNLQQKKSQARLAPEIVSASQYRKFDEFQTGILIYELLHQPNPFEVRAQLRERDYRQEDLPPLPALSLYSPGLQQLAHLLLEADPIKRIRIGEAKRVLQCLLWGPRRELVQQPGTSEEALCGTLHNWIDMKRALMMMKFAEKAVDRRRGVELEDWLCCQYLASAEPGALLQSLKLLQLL

[2] = target: T2, full length PEAK3 from insect cells (PEAK3^FL, S69 phosphorylated) (human, UniProt Q6ZS72 1-473, phosphoserine at 69; biotin (EZ-Link NHS-PEG4-Biotin) where immobilised for SPR)
T2 chain: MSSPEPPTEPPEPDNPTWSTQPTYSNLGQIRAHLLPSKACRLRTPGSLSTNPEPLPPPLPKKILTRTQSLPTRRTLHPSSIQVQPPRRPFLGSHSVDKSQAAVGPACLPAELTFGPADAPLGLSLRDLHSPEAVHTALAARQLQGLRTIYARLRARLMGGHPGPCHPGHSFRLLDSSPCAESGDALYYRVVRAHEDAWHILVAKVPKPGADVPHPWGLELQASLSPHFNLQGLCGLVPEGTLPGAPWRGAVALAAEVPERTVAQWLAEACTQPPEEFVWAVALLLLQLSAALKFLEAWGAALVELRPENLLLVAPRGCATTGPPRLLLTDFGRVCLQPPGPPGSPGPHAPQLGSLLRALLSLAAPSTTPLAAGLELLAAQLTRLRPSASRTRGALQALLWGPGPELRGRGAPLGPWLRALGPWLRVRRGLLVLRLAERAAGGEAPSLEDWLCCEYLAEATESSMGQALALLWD

[3] = target: T3, PEAK3^FL from insect cells, phosphorylated by Src (human, UniProt Q6ZS72 1-473, phosphotyrosine at 24 (by Src in vitro, MS/MS); phosphoserine at 69; biotin (EZ-Link NHS-PEG4-Biotin))
T3 chain: T2 chain

[4] = target: T4, PEAK2^IDR1 (human PEAK2 residues 802–1406) (human, UniProt Q86YV5 802-1406, phosphorylated at the tandem site 14-3-3 motif (RAA(pS)SP) as purified from insect cells; biotin (EZ-Link NHS-PEG4-Biotin) where immobilised for SPR)
T4 chain: T1 chain

[5] = target: T5, PEAK1^IDR1 phosphorylated by Src (human, UniProt Q9H792 1082-1746, phosphotyrosine at 1107 (by Src in vitro, MS/MS); biotin (EZ-Link NHS-PEG4-Biotin))
T5 chain: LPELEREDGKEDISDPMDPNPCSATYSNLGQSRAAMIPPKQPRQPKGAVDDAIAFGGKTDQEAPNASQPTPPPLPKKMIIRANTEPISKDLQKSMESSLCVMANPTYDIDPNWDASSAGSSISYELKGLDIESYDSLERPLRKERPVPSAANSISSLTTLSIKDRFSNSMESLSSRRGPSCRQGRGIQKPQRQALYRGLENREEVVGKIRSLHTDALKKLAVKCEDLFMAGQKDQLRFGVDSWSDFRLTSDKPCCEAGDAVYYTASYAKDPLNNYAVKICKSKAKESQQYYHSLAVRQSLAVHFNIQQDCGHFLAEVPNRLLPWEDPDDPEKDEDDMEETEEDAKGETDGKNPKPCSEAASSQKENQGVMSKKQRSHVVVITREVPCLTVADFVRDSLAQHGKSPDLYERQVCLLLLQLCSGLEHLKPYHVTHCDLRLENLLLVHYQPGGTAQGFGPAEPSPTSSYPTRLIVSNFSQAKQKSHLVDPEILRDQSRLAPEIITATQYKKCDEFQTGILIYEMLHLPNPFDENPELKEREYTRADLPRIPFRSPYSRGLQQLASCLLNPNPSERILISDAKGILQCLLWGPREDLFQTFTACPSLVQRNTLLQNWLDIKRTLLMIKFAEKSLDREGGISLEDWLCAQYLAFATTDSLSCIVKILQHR

B1: full length CrkII, monomer (CrkII^FL monomer) (natural protein)
chain: MAGNFDSEERSSWYWGRLSRQEAVALLQGQRHGVFLVRDSSTSPGDYVLSVSENSRVSHYIINSSGPRPPVPPSPAQPPPGVSPSRLRIGDQEFDSLPALLEFYKIHYLDTTTLIEPVSRSRQGSGVILRQEEAEYVRALFDFNGNDEEDLPFKKGDILRIRDKPEEQWWNAEDSEGKRGMIPVPYVEKYRPASASVSALIGGNQEGSHPQPLGGPEPGPYAQPSVNTPLPNLQNGPIYARVIQKRVPNAYDKTALALEVGELVKVTKINVSGQWEGECNGKRGHFPFTHVRLLDQQNPDEDFS
modifications: biotin (EZ-Link NHS-PEG4-Biotin) where immobilised for SPR
Kd [1]: 2.1 µM

B2: full length CrkII, dimer (CrkII^FL dimer) (natural protein)
chain: B1 chain
modifications: biotin (EZ-Link NHS-PEG4-Biotin) where immobilised for SPR
Kd [1]: 1.4 µM

B3: CrkII NSH3 domain (CrkII^NSH3, residues 134–191) (domain or fragment)
chain: AEYVRALFDFNGNDEEDLPFKKGDILRIRDKPEEQWWNAEDSEGKRGMIPVPYVEKYR
Kd [2]: 3.9 µM | Kd [3]: 6.8 µM | Kd [4]: 4.8 µM

B4: CrkII SH2 domain (CrkII^SH2, residues 6–120) (domain or fragment)
chain: DSEERSSWYWGRLSRQEAVALLQGQRHGVFLVRDSSTSPGDYVLSVSENSRVSHYIINSSGPRPPVPPSPAQPPPGVSPSRLRIGDQEFDSLPALLEFYKIHYLDTTTLIEPVSR
modifications: biotin (EZ-Link NHS-PEG4-Biotin) where immobilised for SPR
Kd [5]: 12.5 µM | Kd [1]: 20.7 µM | Kd [3]: 48.5 µM

B5: 14-3-3γ (natural protein)
chain: MVDREQLVQKARLAEQAERYDDMAAAMKNVTELNEPLSNEERNLLSVAYKNVVGARRSSWRVISSIEQKTSADGNEKKIEMVRAYREKIEKELEAVCQDVLSLLDNYLIKNCSETQYESKVFYLKMKGDYYRYLAEVATGEKRATVVESSEKAYSEAHEISKEHMQPTHPIRLGLALNYSVFYYEIQNAPEQACHLAKTAFDDAIAELDTLNEDSYKDSTLIMQLLRDNLTLWTSDQQDDDGGEGNN
Kd [3]: < 1 µM
